This note sets out measurements from the nanobody polyreactivity screen of Harvey et al. (2022).

A short description of the data set: yeast display, Sf9 membrane polyspecificity reagent, FACS + sequencing; frameworks hold sequencing errors. In short, it runs like this: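 Galactose-induced (36–48 hours) yeast carrying a synthetic nanobody display library were exposed to 10% biotinylated, detergent-solubilized Sf9 membrane reagent at 4 °C for 1 hour. FACS followed streptavidin microbead enrichment, using low and high (top ~1%) gates for expression (anti-HA) and reagent binding (streptavidin). Colony PCR, MiSeq 2 × 250 sequencing and CDR-length filtering followed. Labels for polyreactivity reflect the gate of origin.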
Regarding “QVQLVESGGGLVQAGGSLRLSCAASGRIFSKYAMGWYRQAPGKERELVASIRWRGDRTYYADSVKGRFTISRDNAKNTVDLQMNSLIPEDTAVYYCAADEPGYGVGYWTYPVVPYDYWGQGTQVTVSS”, the “polyreactivity (PSR sort gate)” value is given as “low polyreactivity”.
On to “QVQLVESGGGLLQAGGSLRLSSAASGRIFYGNTMGWYRQAPGKERELVAAITWRGGSTYYADSVKGRFTISRDNAKNTVYLQMNSLKPEDTAVYYCAAVSYRGRGYWGQGTQVTVSS”, for which the “polyreactivity (PSR sort gate)” value is on record as “high polyreactivity”.
The entry for “QVQLVDSGGGLVQAGGSLRLSCAASGLIFKLNAMGWYRQAPGKERELVAAIRASTGSTYYADSVKGRFTISRDNAKNTVYLQMNSLKPEDTADYYCAVRLRWYFFLMDYWGQGTQVTVSS” is “high polyreactivity”.
In the case of “QVQLVESGGGLVQARGSLRLICAASGFTFYRYVMGWYRQAPGKVRELVAAITGRGGSTYYADSVKGRFTISRDNAKNTVYLQMNSRKPEDTAVYYCAARYVTGTLYLAPYEYWGQGTQVTLSS” it was “low polyreactivity”.
The entry for “QVQLVESGGGLVQAGGSLRLSCAASGGTFAGYAMGWYRLAPGKERELVAAISWSSGRTYYADSVKGRFTISRDNAKNTVYLQMNSLKPEDTAVYYCNVLRYRGYDYWGQGTQVTVSS” is “high polyreactivity”; for “QVQLVESGGGLVQAGGSLRLSCAASGRTFKDYAMGWYRPAPGKERELVAAISWSGGDTYYADSVKGRFTISRDNAKNTVYLQMNSLKPEDTAVYYCNADPSGVFFYSLEFDYWGQGTQVTVSS” it is “low polyreactivity”.
As for “QVQLVESGGGLVQAGGSLRLSCAASGRTFIRNAMGWYRQAPGKERELVAAISRGGGTYYADSVKGRFTISRDNAKNTVYLQMNSLKPEDTAVYYCAAGFRSPYYWGQGTQVTVSS”, the “polyreactivity (PSR sort gate)” value is reported as “high polyreactivity”.
In the case of “QVQLVESGGGLVQAGGSLRLSCAASGRTFGYNAMGWYRQAAGKERELVAAISSSGGSTYYADSVKGRFTISRDNAKNTVYLQMNSLKPEDTAVYYCATQGYSWAHGSDYWGQGTQVTVSS” it was “low polyreactivity”; in that of “QVQLVESGGGLVQAGGSLRLSCAASGSTFRWYDMGGYRQAPGKEREFVAAITSSGGSTYYADSVKGRFTISRDNAKNTVYLQMNSLKPEYNAVYYCNRRYQPYSYDYWGQGTQVTVSS”, “high polyreactivity”.
The entry for “QVQLQERGGGLVQAGGSLRLSCAASGSIFHYTQMGWYLQAPGKEREFVAAITDGANTNYADSVKGRFTISRDNAKNTVNLQMNSLIPEDTAVFYCATDYGYTDRVTSGFDYWGQGTQVTVSS” is “low polyreactivity”; for “QVHLVESGGCLVQAGGSLRLSCAASGRTFDFYAMGWYRQAPGKERELVATITSGTSTNYADSVKGRFTISRDNAKNTVYLQMYRLKPEDTAVYYCNAGGVYPRCTFLEQGYEMDYWGQGTQVTVSS” it is “low polyreactivity”.
In the case of “QVQLVVSGGGLVQAGGSLRLSCAASGSFFPIYAMGWYRQAPGKERELVAAITSGGSTNYADSVKGRFTISRDNAKNTVYLQMNSLKPEDTAVYYCAAGGPDHADRYEYWGQGTQVTVSS” it was “low polyreactivity”; in that of “QVQLVESGGGLVQAGGSLRLSCAACGRILTYYAMGWYRQAPGKERELVAAISWRAGSTYYADSVKGRFTISRDNAKNTVYLQMNSLKPEDTAVYYCAAKPYYIPTRTYSHYNYWGQGTQVTVSS”, “high polyreactivity”.
In the case of “QVQLVESGAGLFQAGGSLRLSCAASGRTFVKNAMAWYRQAPGKERELVAAISTSGGRTYYADSVKGRFTISRDNAKKTVYLQMNSLKPEDTAVYYCGAVLYATRPVYGFDSCGQGTQVTVSS”, the “polyreactivity (PSR sort gate)” value is reported as “high polyreactivity”.
The entry for “QVQLGESGGRLVQAGGSIRLTCAASGRTFVTYAMAWSRQAPGNEWELVAGIRPGGSTYYADSVKGRFTISRDNAKNTVYLQMNSLKPEDTAVYYCAASRTSWQGYNYWGQGTQVTVSS” is “high polyreactivity”; for “QVQLVESGGGLVQAGGSLRLSCAASGSTVDRYAMGGYRQAPGKERELVAAITSSGGSTYDADSVKGRFTISRDNAKNTVYVQMNSLKPEDTAVYYCNALITYSTDYWGQGTQVTVSS” it is “low polyreactivity”.
